Measured values reported in patent US20150004189A1.

Legend:
[1] = molecular target: HLA-DP DPB1*0501 (human); assay: inhibition of radiolabeled peptide binding to purified HLA-DP
[2] = molecular target: HLA-DP DPB1*0101 (human); assay: as above
[3] = molecular target: HLA-DP DPB1*0402 (human); assay: as above
[4] = molecular target: HLA-DP DPB1*0201 (human); assay: as above
[5] = molecular target: HLA-DP DPB1*2001 (human); assay: as above
[6] = molecular target: HLA-DR molecule DRB1*0162 (so in the source) (human); assay: radiolabeled-peptide competition on purified HLA class II
[7] = molecular target: HLA DP molecule DPB1*2001 (human); assay: inhibition of radiolabeled peptide binding to purified HLA DP
[8] = molecular target: HLA-DQ molecule DQB1*0502 (human); assay: competition: inhibition of radiolabeled peptide binding to purified HLA
[9] = molecular target: HLA-DQ molecule DQB1*0503 (human); assay: as above
[10] = molecular target: HLA DP molecule DPB1*1401 (human); assay: inhibition of radiolabeled peptide binding to purified HLA DP
[11] = molecular target: HLA-DQ molecule DQB1*0602 (human); assay: competition: inhibition of radiolabeled peptide binding to purified HLA
[12] = molecular target: HLA-DQ molecule DQB1*0202 (human); assay: as above
[13] = molecular target: HLA DP molecule DPB1*1401 (human); assay: competition vs radiolabeled peptide, purified HLA-DP
[14] = molecular target: HLA DP molecule DPB1*2001 (human); assay: as above
[15] = molecular target: HLA DP molecule DPB1*0501 (human); assay: as above
[16] = molecular target: HLA-DP DPB1*1401 (human); assay: inhibition of radiolabeled peptide binding to purified HLA-DP

Substance	IC50 [1] [µM]	IC50 [2] [µM]	IC50 [5] [µM]	also measured
Aln g 1 (11-25) peptide 3324.0004	0.493	0.085		IC50 [3]: 1.5 µM
Aln g 1 (16-30) peptide 3324.0003			2.57	IC50 [4]: 0.036 µM
Aln g 1 (111-125) peptide 3324.0007	0.0033	0.391		
Alt a 1 peptide 3324.0013 (position 111)				IC50 [6]: 0.856 µM
Alt a 1 peptide 3324.0014 (position 116)				IC50 [6]: 0.504 µM
Alt a 1 peptide 3324.0015 (position 6)				IC50 [6]: 0.871 µM
Alt a 1 peptide 3324.0017 (position 11)				IC50 [6]: 0.956 µM
Alt a 1 peptide, position 6 (Peptide ID 3324.0015)				IC50 [7]: 2.09 µM
Alt a 1 peptide, position 6, Peptide ID 3324.0015				IC50 [8]: 7.02 µM; IC50 [9]: 7.26 µM
Alt a 1 peptide, position 11 (Peptide ID 3324.0017)				IC50 [10]: 0.125 µM; IC50 [7]: 0.184 µM
Alt a 1 peptide, position 11, Peptide ID 3324.0017				IC50 [11]: 0.021 µM; IC50 [8]: 8.01 µM; IC50 [9]: 0.223 µM
Alt a 1 peptide, position 111 (Peptide ID 3324.0013)				IC50 [10]: 4.37 µM
Alt a 1 peptide, position 111, Peptide ID 3324.0013				IC50 [12]: 8.36 µM; IC50 [9]: 19.4 µM
Alt a 1 peptide, position 116 (Peptide ID 3324.0014)				IC50 [7]: 0.2 µM
Alt a 1 peptide, position 116, Peptide ID 3324.0014				IC50 [11]: 2.23 µM; IC50 [8]: 8.97 µM
Alt a 1 peptide, position 141 (Peptide ID 3324.0011)				IC50 [10]: 3.39 µM; IC50 [7]: 8.83 µM
Alt a 1 peptide, position 141, Peptide ID 3324.0011				IC50 [11]: 4.95 µM; IC50 [12]: 31.7 µM; IC50 [8]: 6.01 µM; IC50 [9]: 9.1 µM
Alt a 1 peptide, position 143 (Peptide ID 3324.0016)				IC50 [10]: 1.43 µM; IC50 [7]: 8.65 µM
Alt a 1 peptide, position 143, Peptide ID 3324.0016				IC50 [11]: 0.07 µM; IC50 [12]: 7.02 µM; IC50 [8]: 7.75 µM
Alt a 5 peptide, position 51, … (Peptide ID 3324.0065)				IC50 [13]: 0.05 µM; IC50 [14]: 7.5 µM
Alt a 6 peptide, position 161, … (Peptide ID 3324.0073)				IC50 [14]: 7.64 µM
Alt a 7 peptide, position 6, … (Peptide ID 3324.0085)				IC50 [14]: 1.29 µM; IC50 [15]: 0.047 µM

Substance	IC50 [1] [µM]	IC50 [2] [µM]	IC50 [5] [µM]	also measured
Alt a 7 peptide, position 190, … (Peptide ID 3324.0080)				IC50 [13]: 0.938 µM; IC50 [14]: 0.077 µM
Bet v 1 (96-110) peptide 3324.0353		4.09	5.92	IC50 [16]: 5.98 µM
Bet v 1 (111-125) peptide 3324.0352	0.0022	0.279	13	IC50 [16]: 7.59 µM
Bet v 6 (206-220) peptide 3324.0387			0.0033	IC50 [16]: 3.77 µM
Bet v 6 (211-225) peptide 3324.0386	1.05	1.61		
Cha o 1 (86-100) peptide 3324.0517	0.011		0.083	
Cha o 1 peptide 96-110 … (Peptide ID 3324.0523)	7.5		4.96	IC50 [16]: 0.525 µM
Cla h 5 peptide, position 6, … (Peptide ID 3324.0576)				IC50 [14]: 0.143 µM
Cla h 6 peptide, position 161, … (Peptide ID 3324.0588)				IC50 [13]: 9.67 µM; IC50 [14]: 29.6 µM
Cla h 8 peptide, position 151, … (Peptide ID 3324.0603)				IC50 [13]: 0.036 µM
Cup a 1 peptide 66-80 … (Peptide ID 3324.0604)		6.94	23.9	IC50 [16]: 0.029 µM
Cup a 1 peptide 71-85 … (Peptide ID 3324.0607)		0.692	13.6	IC50 [16]: 3.58 µM
Cup a 1 peptide 316-330 … (Peptide ID 3324.0606)		8.23	25.5	IC50 [16]: 0.155 µM
Cup s 1 peptide 86-100 … (Peptide ID 3324.0615)		0.676	9.18	
Cup s 1 peptide 91-105 … (Peptide ID 3324.0618)	0.179	0.806	35.4	IC50 [3]: 0.075 µM
Cup s 1 peptide 96-110 … (Peptide ID 3324.0624)		2.36	25.7	
Dac g 2 peptide 11-25 … (Peptide ID 3324.0657)			6.27	IC50 [16]: 8.1 µM
Dac g 2 peptide 16-30 … (Peptide ID 3324.0658)	0.717	1.35		IC50 [16]: 32 µM
Dac g 4 peptide 1-15 … (Peptide ID 3324.0663)	1.44			
Der f 1 (136-150) peptide 3324.0666		8.43		
Der p 1 (131-145) peptide 3324.0832			0.0077	
Der p 1 (136-150) peptide 3324.0829	4.93	1.21	0.449	IC50 [16]: 9.42 µM

Substance	IC50 [1] [µM]	IC50 [2] [µM]	IC50 [5] [µM]	also measured
Der p 1 (176-190) peptide 3324.0831	35.2			
Der p 1 (226-240) peptide 3324.0840	4		0.31	IC50 [3]: 0.032 µM
Der p 4 (86-100) peptide 3324.0981			0.017	IC50 [4]: 0.22 µM
Der p 4 (96-110) peptide 3324.0987	3.45	15.5	2.93	
Der p 4 (251-265) peptide 3324.0976			0.247	
Der p 4 (321-335) peptide 3324.0977	5.07	1.64	1	
Der p 4 (381-395) peptide 3324.0986		0.324		
Der p 4 (386-400) peptide 3324.0978	2.23		9.01	
Der p 4 (411-425) peptide 3324.0980		0.4	0.0069	IC50 [16]: 0.703 µM; IC50 [3]: 1.51 µM
Der p 4 (416-430) peptide 3324.0974	0.013	0.0091	0.0035	
Der p 4 (476-490) peptide 3324.0975	0.076	0.323	0.379	IC50 [3]: 0.083 µM
Der p 4 (482-496) peptide 3324.0971		0.173	0.509	IC50 [16]: 11.4 µM; IC50 [3]: 0.066 µM
Lol p 2 peptide 51-65 … (Peptide ID 3324.1139)			7.94	
Lol p 2 peptide 56-70 … (Peptide ID 3324.1140)	12.4			
Lol p 11 peptide 111-125 … (Peptide ID 3324.1138)	0.00025	0.205	0.223	
Lol p 11 peptide 116-130 … (Peptide ID 3337.0029)	0.051		0.0081	IC50 [16]: 18.1 µM
Que a 1 peptide 11-25 … (Peptide ID 3324.1587)	0.341	0.114		
Que a 1 peptide 16-30 … (Peptide ID 3324.1585)	0.08	0.017	0.274	
Que a 1 peptide 21-35 … (Peptide ID 3324.1588)	0.242	0.141	3.49	
Que a 1 peptide 141-155 … (Peptide ID 3324.1584)	0.031	0.021	1.3	IC50 [16]: 0.04 µM
Sal k 1 1 peptide 191-205, … (Peptide ID 3324.1590)		0.922	0.558	IC50 [16]: 1.92 µM
Sal k 1 1 peptide 321-335, … (Peptide ID 3324.1589)		0.056	4.88	
